Source: article PMC3018548 (Archives of biochemistry and biophysics, 2010)

Molecular target: the molecule itself
Assay: protein concentration dependence of fluorimetric metal uptake kinetics

B1: Escherichia coli apo-manganese superoxide dismutase (wt apo-MnSOD) (enzyme, UniProt P00448 1-206, looked up)
chain: MSYTLPSLPYAYDALEPHFDKQTMEIHHTKHHQTYVNNANAALESLPEFANLPVEELITKLDQLPADKKTVLRNNAGGHANHSLFWKGLKKGTTLQGDLKAAIERDFGSVDNFKAEFEKAAASRFGSGWAWLVLKGDKLAVVSTANQDSPLMGEAISGASGFPIMGLDVWEHAYYLKFQNRRPDYIKEFWNVVNWDEAAARFAAKK
Q: B1 was tested. Which Kd did it give?
A: The Kd was 6.6 ± 0.9 µM.
